Reference: patent publication US20100216693A1 (published 2010)
Where a chain is given by its changes, count along the chain named.

Molecular target: T1, Human insulin (Actrapid) (human)
T1 construct: On the chip it was coupled through the N-terminus (amine coupling) or the C-terminus (surface thiol coupling); also called free insulin; immobilized insulin
Assay: SPR, immobilized insulin

T1 sequence (chain, as listed by the source, chain 1 of 2): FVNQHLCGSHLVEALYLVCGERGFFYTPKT
T1 sequence (chain, as listed by the source, chain 2 of 2): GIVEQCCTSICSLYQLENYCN

B1: C-peptide variant Glu11-Ala (peptide)
peptide: EAEDLQVGQVALGGGPGAGSLQPLALEGSLQ
B1: no binding.

B2: C-peptide variant with Glu3, 11 and 27 all exchanged for Ala (peptide)
peptide: B1 peptide with E3A, E27A
B2: no binding.

B3: C-peptide variant Glu27-Ala (peptide)
peptide: B1 peptide with A11E, E27A
notes: also called Glu27Ala C-peptide analogue
B3: no binding.
